Source: the supplement of paper PMC5998384

Tests used:
[1] = test system: HeLa Kyoto; experiment: solubility in G1/S (NP-40 vs SDS abundance) (log2 ratio); higher = more soluble; settings: cell cycle stage: G1/S
[2] = test system: HeLa Kyoto; experiment: melting temperature (median over replicates), in situ; higher = more thermally stable
[3] = test system: HeLa Kyoto; experiment: solubility change mitosis vs G1/S (difference of NP-40 vs SDS log2 ratios) (log2 ratio difference); higher = more soluble in mitosis
[4] = test system: HeLa Kyoto; experiment: thermal stability score vs G1/S (z-score of summed log2 fold changes over temperatures); higher = more thermally stable than in G1/S
[5] = cell cycle stage: early G1 (4.5 h after nocodazole release)
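For melting temperature (median over replicates), in situ in this document: HeLa Kyoto cells synchronized by double thymidine or nocodazole block, proteins quantified by TMT10plex mass spectrometry, three independent biological replicates.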
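For solubility change mitosis vs G1/S (difference of NP-40 vs SDS log2 ratios) in this document: synchronized HeLa Kyoto cells (double thymidine block for G1/S, nocodazole release for mitosis), protein amounts in NP-40 versus SDS lysates quantified by mass spectrometry, three biological replicates.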
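For solubility in G1/S (NP-40 vs SDS abundance) in this document: HeLa Kyoto cells arrested at G1/S by double thymidine block, proteins quantified by TMT10plex mass spectrometry in mild NP-40 versus SDS extracts, three biological replicates.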
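For thermal stability score vs G1/S (z-score of summed log2 fold changes over temperatures) in this document: synchronized HeLa Kyoto cells, proteins quantified by TMT10plex mass spectrometry, three biological replicates, mitosis taken 0.5 h after nocodazole release, G1/S directly after double thymidine block.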

Sequence of HDGFRP2 (chain, as listed by the source): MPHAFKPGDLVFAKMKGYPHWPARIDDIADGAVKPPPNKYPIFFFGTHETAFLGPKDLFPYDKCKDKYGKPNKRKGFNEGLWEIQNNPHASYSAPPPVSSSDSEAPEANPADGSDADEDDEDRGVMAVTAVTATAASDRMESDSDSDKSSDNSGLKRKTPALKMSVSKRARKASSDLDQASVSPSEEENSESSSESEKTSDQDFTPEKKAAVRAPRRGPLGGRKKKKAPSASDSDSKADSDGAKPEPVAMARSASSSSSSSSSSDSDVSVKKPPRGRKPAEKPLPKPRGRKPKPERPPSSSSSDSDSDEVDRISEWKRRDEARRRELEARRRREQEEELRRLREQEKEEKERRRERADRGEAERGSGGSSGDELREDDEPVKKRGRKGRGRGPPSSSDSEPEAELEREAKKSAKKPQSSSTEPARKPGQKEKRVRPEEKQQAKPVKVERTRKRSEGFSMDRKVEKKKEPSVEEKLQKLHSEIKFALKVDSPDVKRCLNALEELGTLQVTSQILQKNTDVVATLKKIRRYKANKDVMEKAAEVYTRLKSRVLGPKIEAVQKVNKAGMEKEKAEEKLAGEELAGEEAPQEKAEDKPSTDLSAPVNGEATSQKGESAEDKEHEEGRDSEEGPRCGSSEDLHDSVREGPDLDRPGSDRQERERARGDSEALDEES

Substance	solubility in G1/S (log2) [1]	melting temperature ([2]; cell cycle stage: G1/S) [°C]	melting temperature ([2]; cell cycle stage: mitosis) [°C]	solubility change mitosis (log2) [3]	thermal stability score [4, 5]	thermal stability score ([4]; cell cycle stage: mitosis)
MTTSHMNGHVTEESDSEVKNVDLASPEEHQKHREMAVDCPGDLGTRMMPIRRSAQLERIRQQQEDMRRRREEEGKKQELDLNSSMRLKKLAQIPPKTGIDNPMFDTEEGIVLESPHYAVKILEIEDLFSSLKHIQHTLVDSQSQEDISLLLQLVQNKDFQNAFKIHNAITVHMNKASPPFPLISNAQDLAQEVQTVLKPVHHKEGQELTALLNTPHIQALLLAHDKVAEQEMQLEPITDERVYESIGQYGGETVKIVRIEKARDIPLGATVRNEMDSVIISRIVKGGAAEKSGLLHEGDEVLEINGIEIRGKDVNEVFDLLSDMHGTLTFVLIPSQQIKPPPAKETVIHVKAHFDYDPSDDPYVPCRELGLSFQKGDILHVISQEDPNWWQAYREGDEDNQPLAGLVPGKSFQQQREAMKQTIEEDKEPEKSGKLWCAKKNKKKRKKVLYNANKNDDYDNEEILTYEEMSLYHQPANRKRPIILIGPQNCGQNELRQRLMNKEKDRFASAVPHTTRSRRDQEVAGRDYHFVSRQAFEADIAAGKFIEHGEFEKNLYGTSIDSVRQVINSGKICLLSLRTQSLKTLRNSDLKPYIIFIAPPSQERLRALLAKEGKNPKPEELREIIEKTREMEQNNGHYFDTAIVNSDLDKAYQELLRLINKLDTEPQWVPSTWLR [MPP5]	0.0594	48	50.7	0.00906	0.62	2.56
MLSAASRVVSRAAVHCALRSPPPEARALAMSRPPPPRVASVLGTMEMGRRMDAPASAAAVRAFLERGHTELDTAFMYSDGQSETILGGLGLGLGGGDCRVKIATKANPWDGKSLKPDSVRSQLETSLKRLQCPQVDLFYLHAPDHGTPVEETLHACQRLHQEGKFVELGLSNYASWEVAEICTLCKSNGWILPTVYQGMYNATTRQVETELFPCLRHFGLRFYAYNPLAGGLLTGKYKYEDKDGKQPVGRFFGNSWAETYRNRFWKEHHFEAIALVEKALQAAYGASAPSVTSAALRWMYHHSQLQGAHGDAVILGMSSLEQLEQNLAATEEGPLEPAVVDAFNQAWHLVAHECPNYFR [AKR7A2]	0.438	53.1	53.1	-0.121	0.491	0.31
MASSSGNDDDLTIPRAAINKMIKETLPNVRVANDARELVVNCCTEFIHLISSEANEICNKSEKKTISPEHVIQALESLGFGSYISEVKEVLQECKTVALKRRKASSRLENLGIPEEELLRQQQELFAKARQQQAELAQQEWLQMQQAAQQAQLAAASASASNQAGSSQDEEDDDDI [DR1]	-0.174	58.2	52.7	0.91	-1.34	-0.438
MATAAETSASEPEAESKAGPKADGEEDEVKAARTRRKVLSRAVAAATYKTMGPAWDQQEEGVSESDGDEYAMASSAESSPGEYEWEYDEEEEKNQLEIERLEEQLSINVYDYNCHVDLIRLLRLEGELTKVRMARQKMSEIFPLTEELWLEWLHDEISMAQDGLDREHVYDLFEKAVKDYICPNIWLEYGQYSVGGIGQKGGLEKVRSVFERALSSVGLHMTKGLALWEAYREFESAIVEAARLEKVHSLFRRQLAIPLYDMEATFAEYEEWSEDPIPESVIQNYNKALQQLEKYKPYEEALLQAEAPRLAEYQAYIDFEMKIGDPARIQLIFERALVENCLVPDLWIRYSQYLDRQLKVKDLVLSVHNRAIRNCPWTVALWSRYLLAMERHGVDHQVISVTFEKALNAGFIQATDYVEIWQAYLDYLRRRVDFKQDSSKELEELRAAFTRALEYLKQEVEERFNESGDPSCVIMQNWARIEARLCNNMQKARELWDSIMTRGNAKYANMWLEYYNLERAHGDTQHCRKALHRAVQCTSDYPEHVCEVLLTMERTEGSLEDWDIAVQKTETRLARVNEQRMKAAEKEAALVQQEEEKAEQRKRARAEKKALKKKKKIRGPEKRGADEDDEKEWGDDEEEQPSKRRRVENSIPAAGETQNVEVAAGPAGKCAAVDVEPPSKQKEKAASLKRDMPKVLHDSSKDSITVFVSNLPYSMQEPDTKLRPLFEACGEVVQIRPIFSNRGDFRGYCYVEFKEEKSALQALEMDRKSVEGRPMFVSPCVDKSKNPDFKVFRYSTSLEKHKLFISGLPFSCTKEELEEICKAHGTVKDLRLVTNRAGKPKGLAYVEYENESQASQAVMKMDGMTIKENIIKVAISNPPQRKVPEKPETRKAPGGPMLLPQTYGARGKGRTQLSLLPRALQRPSAAAPQAENGPAAAPAVAAPAATEAPKMSNADFAKLFLRK [SART3]	-0.112	48.2	49.2	-0.103	1.98	4.74
DIP2B	-0.125	53.4	53.1	-0.12	-1.32	-2.08
HDGFRP2	-0.376	54.3	53.9	0.275	-0.27	-1.13
MDGSGPFSCPICLEPLREPVTLPCGHNFCLACLGALWPHRGASGAGGPGGAARCPLCQEPFPDGLQLRKNHTLSELLQLRQGSGPGSGPGPAPALAPEPSAPSALPSVPEPSAPCAPEPWPAGEEPVRCDACPEGAALPAALSCLSCLASFCPAHLGPHERSPALRGHRLVPPLRRLEESLCPRHLRPLERYCRAERVCLCEACAAQEHRGHELVPLEQERALQEAEQSKVLSAVEDRMDELGAGIAQSRRTVALIKSAAVAERERVSRLFADAAAALQGFQTQVLGFIEEGEAAMLGRSQGDLRRQEEQRSRLSRARQNLSQVPEADSVSFLQELLALRLALEDGCGPGPGPPRELSFTKSSQAVRAVRDMLAVACVNQWEQLRGPGGNEDGPQKLDSEADAEPQDLESTNLLESEAPRDYFLKFAYIVDLDSDTADKFLQLFGTKGVKRVLCPINYPLSPTRFTHCEQVLGEGALDRGTYYWEVEIIEGWVSMGVMAEDFSPQEPYDRGRLGRNAHSCCLQWNGRSFSVWFHGLEAPLPHPFSPTVGVCLEYADRALAFYAVRDGKMSLLRRLKASRPRRGGIPASPIDPFQSRLDSHFAGLFTHRLKPAFFLESVDAHLQIGPLKKSCISVLKRR [TRIM47]	0.0943	47.8	46.7	-0.052	0.521	1.84
MGKRDRADRDKKKSRKRHYEDEEDDEEDAPGNDPQEAVPSAAGKQVDESGTKVDEYGAKDYRLQMPLKDDHTSRPLWVAPDGHIFLEAFSPVYKYAQDFLVAIAEPVCRPTHVHEYKLTAYSLYAAVSVGLQTSDITEYLRKLSKTGVPDGIMQFIKLCTVSYGKVKLVLKHNRYFVESCHPDVIQHLLQDPVIRECRLRNSEGEATELITETFTSKSAISKTAESSGGPSTSRVTDPQGKSDIPMDLFDFYEQMDKDEEEEEETQTVSFEVKQEMIEELQKRCIHLEYPLLAEYDFRNDSVNPDINIDLKPTAVLRPYQEKSLRKMFGNGRARSGVIVLPCGAGKSLVGVTAACTVRKRCLVLGNSAVSVEQWKAQFKMWSTIDDSQICRFTSDAKDKPIGCSVAISTYSMLGHTTKRSWEAERVMEWLKTQEWGLMILDEVHTIPAKMFRRVLTIVQAHCKLGLTATLVREDDKIVDLNFLIGPKLYEANWMELQNNGYIAKVQCAEVWCPMSPEFYREYVAIKTKKRILLYTMNPNKFRACQFLIKFHERRNDKIIVFADNVFALKEYAIRLNKPYIYGPTSQGERMQILQNFKHNPKINTIFISKVGDTSFDLPEANVLIQISSHGGSRRQEAQRLGRVLRAKKGMVAEEYNAFFYSLVSQDTQEMAYSTKRQRFLVDQGYSFKVITKLAGMEEEDLAFSTKEEQQQLLQKVLAATDLDAEEEVVAGEFGSRSSQASRRFGTMSSMSGADDTVYMEYHSSRSKAPSKHVHPLFKRFRK [ERCC3]	-0.561	47.9	49.6	-0.0174	0.89	1.14
MSLAFKIFFPQTLRALSRKELCLFRKHHWRDVRQFSQWSETDLLHGHPLFLRRKPVLSFQGSHLRSRATYLVFLPGLHVGLCSGPCEMAEQRFCVDYAKRGTAGCKKCKEKIVKGVCRIGKVVPNPFSESGGDMKEWYHIKCMFEKLERARATTKKIEDLTELEGWEELEDNEKEQITQHIADLSSKAAGTPKKKAVVQAKLTTTGQVTSPVKGASFVTSTNPRKFSGFSAKPNNSGEAPSSPTPKRSLSSSKCDPRHKDCLLREFRKLCAMVADNPSYNTKTQIIQDFLRKGSAGDGFHGDVYLTVKLLLPGVIKTVYNLNDKQIVKLFSRIFNCNPDDMARDLEQGDVSETIRVFFEQSKSFPPAAKSLLTIQEVDEFLLRLSKLTKEDEQQQALQDIASRCTANDLKCIIRLIKHDLKMNSGAKHVLDALDPNAYEAFKASRNLQDVVERVLHNAQEVEKEPGQRRALSVQASLMTPVQPMLAEACKSVEYAMKKCPNGMFSEIKYDGERVQVHKNGDHFSYFSRSLKPVLPHKVAHFKDYIPQAFPGGHSMILDSEVLLIDNKTGKPLPFGTLGVHKKAAFQDANVCLFVFDCIYFNDVSLMDRPLCERRKFLHDNMVEIPNRIMFSEMKRVTKALDLADMITRVIQEGLEGLVLKDVKGTYEPGKRHWLKVKKDYLNEGAMADTADLVVLGAFYGQGSKGGMMSIFLMGCYDPGSQKWCTVTKCAGGHDDATLARLQNELDMVKISKDPSKIPSWLKVNKIYYPDFIVPDPKKAAVWEITGAEFSKSEAHTADGISIRFPRCTRIRDDKDWKSATNLPQLKELYQLSKEKADFTVVAGDEGSSTTGGSSEENKGPSGSAVSRKAPSKPSASTKKAEGKLSNSNSKDGNMQTAKPSAMKVGEKLATKSSPVKVGEKRKAADETLCQTKVLLDIFTGVRLYLPPSTPDFSRLRRYFVAFDGDLVQEFDMTSATHVLGSRDKNPAAQQVSPEWIWACIRKRRLVAPC [LIG3]	-0.13	46.3	48.8	0.0705	0.91	2.49
MAAQKDQQKDAEAEGLSGTTLLPKLIPSGAGREWLERRRATIRPWSTFVDQQRFSRPRNLGELCQRLVRNVEYYQSNYVFVFLGLILYCVVTSPMLLVALAVFFGACYILYLRTLESKLVLFGREVSPAHQYALAGGISFPFFWLAGAGSAVFWVLGATLVVIGSHAAFHQIEAVDGEELQMEPV [RABAC1]	-0.392	59.6	58.3	-0.0714	-0.0851	-0.547
MRPQELPRLAFPLLLLLLLLLPPPPCPAHSATRFDPTWESLDARQLPAWFDQAKFGIFIHWGVFSVPSFGSEWFWWYWQKEKIPKYVEFMKDNYPPSFKYEDFGPLFTAKFFNANQWADIFQASGAKYIVLTSKHHEGFTLWGSEYSWNWNAIDEGPKRDIVKELEVAIRNRTDLRFGLYYSLFEWFHPLFLEDESSSFHKRQFPVSKTLPELYELVNNYQPEVLWSDGDGGAPDQYWNSTGFLAWLYNESPVRGTVVTNDRWGAGSICKHGGFYTCSDRYNPGHLLPHKWENCMTIDKLSWGYRREAGISDYLTIEELVKQLVETVSCGGNLLMNIGPTLDGTISVVFEERLRQMGSWLKVNGEAIYETHTWRSQNDTVTPDVWYTSKPKEKLVYAIFLKWPTSGQLFLGHPKAILGATEVKLLGHGQPLNWISLEQNGIMVELPQLTIHQMPCKWGWALALTNVI [FUCA2]	-0.00865	54.8	54.8	-0.00976	2.46	3.64
MASGTTTTAVKIGIIGGTGLDDPEILEGRTEKYVDTPFGKPSDALILGKIKNVDCVLLARHGRQHTIMPSKVNYQANIWALKEEGCTHVIVTTACGSLREEIQPGDIVIIDQFIDRTTMRPQSFYDGSHSCARGVCHIPMAEPFCPKTREVLIETAKKLGLRCHSKGTMVTIEGPRFSSRAESFMFRTWGADVINMTTVPEVVLAKEAGICYASIAMATDYDCWKEHEEAVSVDRVLKTLKENANKAKSLLLTTIPQIGSTEWSETLHNLKNMAQFSVLLPRH [MTAP]	0.254	60	60.5	-0.0344	-1.8	-2.68
